The chains are these.
T1: FcγRIIb extracellular domain with C-terminal His tag (human, UniProt P31994 43-217)
T1 construct: extracellular domain; Soluble receptor expressed in FreeStyle293 cells, used as analyte in Biacore; also called FcgRIIb; 2b; not shown: His tag at the C terminus
T1 sequence (looked up): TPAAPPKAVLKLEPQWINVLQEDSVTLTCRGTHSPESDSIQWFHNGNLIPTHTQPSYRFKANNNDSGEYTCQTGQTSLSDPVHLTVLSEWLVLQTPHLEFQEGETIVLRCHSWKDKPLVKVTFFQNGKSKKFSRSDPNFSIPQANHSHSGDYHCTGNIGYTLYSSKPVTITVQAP

B1: GpH7-A5/GpH7-B3 variant P331_03V/GpL16-k0 (antibody, human IgG1, kappa)
heavy 1: not shown
heavy 2: not shown
light: DIVMTQSPLSLPVTPGEPASISCQASESLVHSNRNTYLHWYLQKPGQSPQLLIYKVSNRFSGVPDRFSGSGSGTDFTLKISRVEAEDVGVYYCSQNTHVPPTFGQGTKVEIERTVAAPSVFIFPPSDEQLKSGTASVVCLLNNFYPREAKVQWKVDNALQSGNSQESVTEQDSKDSTYSLSSTLTLSKADYEKHKVYACEVTHQGLSSPVTKSFNRGEC
notes: Heterodimerized anti-glypican-3 IgG1; P331V (EU) only in the GpH7-B3 chain; also called He Ab
B2: GpH7-A5/GpH7-B3 variant P331_07I/GpL16-k0 (antibody, human IgG1, kappa)
heavy 1: not shown
heavy 2: not shown
light: B1 light
notes: Heterodimerized anti-glypican-3 IgG1; P331I (EU) only in the GpH7-B3 chain; also called He Ab
B3: GpH7-A5/GpH7-B3 variant P331_04F/GpL16-k0 (antibody, human IgG1, kappa)
heavy 1: not shown
heavy 2: not shown
light: B1 light
notes: Heterodimerized anti-glypican-3 IgG1; P331F (EU) only in the GpH7-B3 chain; also called He Ab
B4: GpH7-A5/GpH7-B3 variant L328_20W/GpL16-k0 (antibody, human IgG1, kappa)
heavy 1: not shown
heavy 2: not shown
light: B1 light
notes: Heterodimerized anti-glypican-3 IgG1; L328W (EU) only in the GpH7-B3 chain; also called He Ab
B5: GpH7-A5/GpH7-B3 variant L328_19Q/GpL16-k0 (antibody, human IgG1, kappa)
heavy 1: not shown
heavy 2: not shown
light: B1 light
notes: Heterodimerized anti-glypican-3 IgG1; L328Q (EU) only in the GpH7-B3 chain; also called He Ab
B6: GpH7-A5/GpH7-B3 variant P331_20W/GpL16-k0 (antibody, human IgG1, kappa)
heavy 1: not shown
heavy 2: not shown
light: B1 light
notes: Heterodimerized anti-glypican-3 IgG1; P331W (EU) only in the GpH7-B3 chain; also called He Ab
B7: GpH7-A5/GpH7-B3 variant P331_16H/GpL16-k0 (antibody, human IgG1, kappa)
heavy 1: not shown
heavy 2: not shown
light: B1 light
notes: Heterodimerized anti-glypican-3 IgG1; P331H (EU) only in the GpH7-B3 chain; also called He Ab
B8: GpH7-A5/GpH7-B3 variant L328_15Y/GpL16-k0 (antibody, human IgG1, kappa)
heavy 1: not shown
heavy 2: not shown
light: B1 light
notes: Heterodimerized anti-glypican-3 IgG1; L328Y (EU) only in the GpH7-B3 chain; also called He Ab
B9: GpH7-A5/GpH7-B3 variant I332_11K/GpL16-k0 (antibody, human IgG1, kappa)
heavy 1: not shown
heavy 2: not shown
light: B1 light
notes: Heterodimerized anti-glypican-3 IgG1; I332K (EU) only in the GpH7-B3 chain; also called He Ab
B10: GpH7-A5/GpH7-B3 variant L328_14T/GpL16-k0 (antibody, human IgG1, kappa)
heavy 1: not shown
heavy 2: not shown
light: B1 light
notes: Heterodimerized anti-glypican-3 IgG1; L328T (EU) only in the GpH7-B3 chain; also called He Ab
B11: GpH7-A5/GpH7-B3 variant P331_06M/GpL16-k0 (antibody, human IgG1, kappa)
heavy 1: not shown
heavy 2: not shown
light: B1 light
notes: Heterodimerized anti-glypican-3 IgG1; P331M (EU) only in the GpH7-B3 chain; also called He Ab
B12: GpH7-A5/GpH7-B3 variant P331_14T/GpL16-k0 (antibody, human IgG1, kappa)
heavy 1: not shown
heavy 2: not shown
light: B1 light
notes: Heterodimerized anti-glypican-3 IgG1; P331T (EU) only in the GpH7-B3 chain; also called He Ab
B13: GpH7-A5/GpH7-B3 variant P329_20W/GpL16-k0 (antibody, human IgG1, kappa)
heavy 1: not shown
heavy 2: not shown
light: B1 light
notes: Heterodimerized anti-glypican-3 IgG1; P329W (EU) only in the GpH7-B3 chain; also called He Ab
B14: GpH7-A5/GpH7-B3 variant P331_10E/GpL16-k0 (antibody, human IgG1, kappa)
heavy 1: not shown
heavy 2: not shown
light: B1 light
notes: Heterodimerized anti-glypican-3 IgG1; P331E (EU) only in the GpH7-B3 chain; also called He Ab
B15: GpH7-A5/GpH7-B3 variant P331_18N/GpL16-k0 (antibody, human IgG1, kappa)
heavy 1: not shown
heavy 2: not shown
light: B1 light
notes: Heterodimerized anti-glypican-3 IgG1; P331N (EU) only in the GpH7-B3 chain; also called He Ab

T2 sequence (P08637 17-208): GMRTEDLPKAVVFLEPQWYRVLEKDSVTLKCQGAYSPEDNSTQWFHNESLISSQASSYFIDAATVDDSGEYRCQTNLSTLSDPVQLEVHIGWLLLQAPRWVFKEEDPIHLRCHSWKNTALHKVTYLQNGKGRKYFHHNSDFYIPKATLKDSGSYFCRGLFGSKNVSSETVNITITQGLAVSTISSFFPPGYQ

The first experiment addresses T2, FcγRIIIa extracellular domain with C-terminal His tag (human, UniProt P08637 17-208).
T2 construct: extracellular domain; also called FcgRIIIa; 3a; not shown: His tag at the C terminus
Nature of the experiment: SPR; He/Con_3a divided by He/Con_2b (FcγRIIIa over FcγRIIb). How it is done:
(§1) Analysis of interaction between objective antibody and the FcγR was carried out using Biacore T100 (GE Healthcare). HBS-EP+ (GE Healthcare) was used as the running buffer, and the measurement temperature was set to 25° C. Chips produced by immobilizing the antigen peptide by the amine coupling method to a Series S Sencor Chip CM5 (GE Healthcare), or alternatively, chips produced by allowing preliminarily biotinylated antigen peptides to interact with and immobilize onto a Series S Sensor Chip SA (certified) (GE Healthcare) were used. Antibodies of interest were captured onto an antigen peptide-immobilized chip, and allowed to interact to each FcγR diluted with running buffer. To regenerate and repeatedly use the chip, the antibodies captured on the chip were washed off by reacting 10 mM glycine-HCl, pH 1.5.
(§2) The FcγR-binding activity of each antibody was assessed primarily using as an indicator the FcγR-binding activity and dissociation constant for FcγR.
Turning to B1, the “He_3a/2b (IIIa/IIb)” value was determined as 0.62 ratio.
B2: the “He_3a/2b (IIIa/IIb)” value is 0.58 ratio.
Regarding B3, the “He_3a/2b (IIIa/IIb)” value was 0.7 ratio.
As to B4, the “He_3a/2b (IIIa/IIb)” value was determined as 0.16 ratio.
On to B5, for which the “He_3a/2b (IIIa/IIb)” value was found to be 0.77 ratio.
B6: the “He_3a/2b (IIIa/IIb)” value is 0.71 ratio.
For the molecule B7, the “He_3a/2b (IIIa/IIb)” value was determined as 0.69 ratio.
As for B8, the “He_3a/2b (IIIa/IIb)” value worked out at 0.35 ratio.
On to B9, for which the “He_3a/2b (IIIa/IIb)” value was 0.64 ratio.
Regarding B10, the “He_3a/2b (IIIa/IIb)” value was determined as 0.53 ratio.
With B11, the “He_3a/2b (IIIa/IIb)” value was found to be 0.74 ratio.
Still for that read-out and setting: then B12, with 0.74 ratio; and B13, with 0.7 ratio.
For B14, the “He_3a/2b (IIIa/IIb)” value is 0.65 ratio.
Regarding B15, the “He_3a/2b (IIIa/IIb)” value was 0.74 ratio.

For the next experiment, the target named is T1, FcγRIIb extracellular domain with …. Kind of experiment: SPR (Biacore), antibody captured on antigen peptide chip, FcγR as analyte. The protocol:
as §1, §2
For orientation: Surface plasmon resonance follows binding to a sensor surface in real time, without labels.
Consider B1, for which the He/Con_2b is 119 relative binding (GpH7-A5/GpH7-B3/GpL16-k0 = 100).
For B2, the He/Con_2b is 114 relative binding (GpH7-A5/GpH7-B3/GpL16-k0 = 100).
On to B3, for which the He/Con_2b is 110 relative binding (GpH7-A5/GpH7-B3/GpL16-k0 = 100).
Turning to B4, the He/Con_2b was 235 relative binding (GpH7-A5/GpH7-B3/GpL16-k0 = 100).
Regarding B5, the He/Con_2b was 105 relative binding (GpH7-A5/GpH7-B3/GpL16-k0 = 100).
As for B6, the He/Con_2b is 111 relative binding (GpH7-A5/GpH7-B3/GpL16-k0 = 100).
On the same count and under the same terms, then B7, with 116 relative binding (GpH7-A5/GpH7-B3/GpL16-k0 = 100).
Regarding B8, the He/Con_2b is 193 relative binding (GpH7-A5/GpH7-B3/GpL16-k0 = 100).
With B9, the He/Con_2b is 70.9 relative binding (GpH7-A5/GpH7-B3/GpL16-k0 = 100).
For the molecule B10, the He/Con_2b is 141 relative binding (GpH7-A5/GpH7-B3/GpL16-k0 = 100).
Turning to B11, the He/Con_2b was 102 relative binding (GpH7-A5/GpH7-B3/GpL16-k0 = 100).
For B12, the He/Con_2b is 99.8 relative binding (GpH7-A5/GpH7-B3/GpL16-k0 = 100).
Turning to B13, the He/Con_2b is 45.1 relative binding (GpH7-A5/GpH7-B3/GpL16-k0 = 100).
For the molecule B14, the He/Con_2b is 116 relative binding (GpH7-A5/GpH7-B3/GpL16-k0 = 100).
On the same count and under the same terms, then B15, with 99.2 relative binding (GpH7-A5/GpH7-B3/GpL16-k0 = 100).

The next experiment has as its target T2, FcγRIIIa extracellular domain with …. The experiment is described as above. The protocol:
as §1, §2
As for B1, the He/Con_3a is 73.2 relative binding (GpH7-A5/GpH7-B3/GpL16-k0 = 100).
B2: the He/Con_3a is 66 relative binding (GpH7-A5/GpH7-B3/GpL16-k0 = 100).
With B3, the He/Con_3a was 77.3 relative binding (GpH7-A5/GpH7-B3/GpL16-k0 = 100).
For B4, the He/Con_3a was 37.4 relative binding (GpH7-A5/GpH7-B3/GpL16-k0 = 100).
For B5, the He/Con_3a is 81.1 relative binding (GpH7-A5/GpH7-B3/GpL16-k0 = 100).
Consider B6, for which the He/Con_3a is 78.6 relative binding (GpH7-A5/GpH7-B3/GpL16-k0 = 100).
Turning to B7, the He/Con_3a is 80.2 relative binding (GpH7-A5/GpH7-B3/GpL16-k0 = 100).
B8: the He/Con_3a is 68.3 relative binding (GpH7-A5/GpH7-B3/GpL16-k0 = 100).
Still for that read-out and setting: with B9 the figure was 45.1 relative binding (GpH7-A5/GpH7-B3/GpL16-k0 = 100).
As for B10, the He/Con_3a is 75.3 relative binding (GpH7-A5/GpH7-B3/GpL16-k0 = 100).
In the case of B11, the He/Con_3a is 74.8 relative binding (GpH7-A5/GpH7-B3/GpL16-k0 = 100).
The same measure, in the same setting: then B12, with 74.1 relative binding (GpH7-A5/GpH7-B3/GpL16-k0 = 100); and B13, with 31.7 relative binding (GpH7-A5/GpH7-B3/GpL16-k0 = 100); and B14, with 75.1 relative binding (GpH7-A5/GpH7-B3/GpL16-k0 = 100).
Take B15: the He/Con_3a was 73.4 relative binding (GpH7-A5/GpH7-B3/GpL16-k0 = 100).

The values above are taken from patent publication US20180155451A1 (published 2018).
